A short description of this data set: label from the status in PepcDB records.
On to “QLSSFETCAEKEESANTTESAIFEYHCEMSFDPNLLHNNGHNGYPNGTSAALRETGVIEKLLTSYGFIQCSERQARLFFHCSQYNGNLQDLKVGDDVEFEVSSDRRTGKPIAVKLVKIKQEILPEERMNGQVVCAVPHNLESKSPAAPGQSPTGSVCYERNGEVFYLTYTPEDVEGNVQLETGDKINFVIDNNKHTGAVSARNIMLLKKKQARCQGVVCAMKEAFGFIERGDVVKEIFFHYSEFKGDLETLQPGDDVEFTIKDRNGKEVATDVRLLPQGTVIFEDISIEHFEGTVTKVIPKVPSKNQNDPLPGRIKVDFVIPKELPFGDKDTKSKVTLLEGDHVRFNISTDRRDKLERATNIEVLSNTFQFTNEAREMGVIAAMRDGFGFIKCVDRDVRMFFHFSEILDGNQLHIADEVEFTVVPDMLSAQRNHAIRIKKLPKGTVSFHSHSDHRFLGTVEKEATFSNPKTTSPNKGKEKEAEDGIIAYDDCGVKLTIAFQAKDVEGSTSPQIGDKVEFSISDKQRPGQQVATCVRLLGRNSNSKRLLGYVATLKDNFGFIETANHDKEIFFHYSEFSGDVDSLELGDMVEYSLSKGKGNKVSAEKVNKTHSVNGITEEADPTIYSGKVIRPLRSVDPTQTEYQGMIEIVEEGDMKGEVYPFGIVGMANKGDCLQKGESVKFQLCVLGQNAQTMAYNITPLRRATVECVKDQFGFINYEVGDSKKLFFHVKEVQDGIELQAGDEVEFSVILNQRTGKCSACNVWRVCEGPKAVAAPRPDRLVNRLKNITLDDASAPRLMVLRQPRGPDNSMGFGAERKIRQAGVID”, for which the protein production entry is reported as “not failed”.

With “QNKKSGNPILPGFHADPEVLYSHQTKRYYIYPTSDGFPGWGGSYFKVFSSKNLKTWKEETVILEMGKNVSWANGNAWAPCIEEKKIDGKYKYFFYYSANPTTNKGKQIGVAVADSPTGPFTDLGKPIITSSPTGRGQQIDVDVFTDPVSGKSYLYWGNGYMAGAELNDDMLSIKEETTVVLTPKGGTLQTYAYREAPYVIYRKGIYYFFWSVDDTGSPNYHVVYGTAQSPLGPIEVAKEPIVLIQNPKEEIYGPAHNSILQVPGKDKWYIVYHRINKNHLNDGPGWHREVCIDRMEFNPDGTIKQVIPTP”, the protein production entry is listed as “not failed”.

On to “QNNYLQSLEVQVMLDTLRVIHNPLQDYALVALMKSPMFGFDEDELARLSLQKAEDKVHENLYEKLVNAQKMASSQKGLIHTALAEKLKQFMDILASWRLYAKTHSLYDLIWKIYNDRFYYDYVGALPNGPARQANLYALALRADQFEKSNFKGLSRFIRMIDQVLEAQ”, for which the protein production result was “failed”.

As for “QQMQAESGFVQHVGFKCDNCGIEPIQGVRWHCQDCPPEMSLDFCDSCSDCLHETDIHKEDHQLEPIYRS”, the protein production entry was “not failed”.

Take “QRRLSIFVDGNNMFYAQQKNNWFFDPRRVLDYFTCDPTVRLINAFWYTGLKDSQDQRGFRDALISLGYTVRTKILKEYYDDVSGRYSQKANLDIEIVVDMFNTVDQYDQVILFSGDGDFERAIELLRSKNTHITVVSTEGMIARELRNATDCYIDLNNLRAEIEKT”: the protein production entry was “failed”.

“QSGATAKVSVLYIGPMEAPADAAQRLGLPAGTQVLARRRLYFRNGTPVETASSYLPWDVVKDIPELFAENPGGGGIYARLEDHGHEFAEFVETLQARPASKAEASELALSPGAPVVHLIREARTTAGVVVEVCDTLMAADQFVFEYRIPAAD”: the protein production entry is listed as “failed”.

Regarding “QTEGLETVHIKGQRSYNAIATEKNGDYSSFAATVGTKIPASLREIPQSVSIITNQQVKDRNVDTFDQLARKTPGLRVLSNDDGRSSVYARGYEYSEYNIDGLPAQMQSINGTLPNLFAFDRVEVMRGPSGLFDSSGEMGGIVNLVRKRPTKAFQGHAAAGFGTHKQYKAEADVSGSLNSDGSVRGRVMAQTVGASPRPAEKNNRRETFYAAADWDINPDTVLGAGYLYQQRRLAPYNGLPADANNKLPSLPQHVFVGADWNKFKMHSHDVFADLKHYFGNGGYGKVGMRYSDRKADSNYTFAGSKLNNTGQADVAGLGTDIKQKAFAVDASYSRPFALGNTANEFVIGADYNRLRSTNEQGRSTLSKSVALDGFRALPYNGILQNARAGNKGFNHSVTEENLDETGLYAKTVFRPLEGLSLIAGGRVGHHKIESGDGKTLHKASKTKFTSYAGAVYDIDGSNSLYASASQLYTPQTSIGTDGKLLKPREGNQFEIGYKGSYMDDRLNTRVSFYRMKDKNAAAPLDSNNKKTRYAALGKRVMEGVETEISGAMTPKWQIHAGYSYLHSQIKTASNSRDEGIFLLMPKHSANLWTTYQVTSGLTIGGGVNA”, the protein production result is recorded as “failed”.

For “QTQVNAEKKIQVEFVSANPTSSLHVGHGRGAAYGMTVANLLEATGAQVDREYYVNDAGRQMDILATSTYLRYLELLGQPLVFPKNAYQGDYVKEIAQSIIDKDGDAYVRSVADVYRNVPEDVQYAEELDSEGNKVVLSGDKEKHIDGLIANSQQLIGQGYRVFHQAALKAILDDIKDDLADFGVTFDQWFSEASLTQKIDEALQTLDQRGYLYEKEGNIWFKSTKFGDEKDRVVKRRNGQTTYFASDIAYHLDKLQRGYTHIVDIWGSDHHGYIARVKAAIDAMGYDSSKLTVLLVQFVSLWRGGEMVQMSSRSGQFVTLRELRQEVGNDAARFYYVMRKSEQHIDFDLDLAVSQSKDNAVYYIQYAHARICRMLEKANS”, the protein production entry is listed as “failed”.

In the case of “QVKSERSQKIFLEFVSANPTGPLHIGHARGAVFGDSLAKIARFLGHEVLCEYYVNDMGSQIRLLGLSVWLAYREHVLKESVTYPEVFYKGEYIIEIAKKANNDLEPSLLKENEETIIEVLSGYARDLMLLEIKDNLDALGIHFDSYASEKEVFKHKDAVFEQLEKANALYEKDSKIWLKSSLYQDESDRVLIKEDKSYTYLAGDIVYHDEKFKQDYTKYINIWGADHHGYIARVKASLEFLGYDSNKLEVLLAQMVRLLKDNEPYKMSKRAGNFILIKDVVDDVGKDALRFIFLSKRLDTHLEFDVNTLKKQDSSNPIYYIHYANSRIHTMLEKSPFSKEEVLQTP”, the protein production entry is reported as “failed”.

Consider “QVSKTYYVSKPGTLISMMTEEEANSITHLTLTGKLNAEDFRHLRDEFPSLKVLDISNAEIKMYSGKAGTYPNGKFYIYMANFVPAYAFSNVVNGVTKGKQTLEKVILSEKIKNIEDAAFKGCDNLKICQIRKKTAPNLLPEALADSVTAIFIPLGSSDAYRFKNRWEHFAFIEGEPLETTIQVGAMGKLEDEIMKAGLQPRDINFLTIEGKLDNADFKLIRDYMPNLVSLDISKTNATTIPDFTFAQKKYLLKIKLPHNLKTIGQRVFSNCGRLAGTLELPASVTAIEFGAFMGCDNLRYVLATGDKITTLGDELFGNGVPSKLIYKK”, for which the protein production result is reported as “not failed”.

As to “QYDPYKNPESAQTRRNTVLQQMYQDKNISKKEYDQAVATPVTDGLKELKQKSTYPKYMDNYLKQVISEVKQKTGKDIFTAGL”, the protein production entry is recorded as “failed”.

Regarding “RAKLMEERETSLKDSVEVAFDAVRLIANNPNLSEAEAKQQVKAVLTNIRYGSDGYFFAYDAQGTNLVHPIQPELVGQNLWQLQDERGDFLIQ”, the protein production entry is “failed”.

Turning to “RDKYYLITHGSQDPYWTSLFQGAKKAAEELKVDLQILAPPGANDVPKQVQFIESALATYPSGIATTIPSDTAFSKSLQRANKLNIPVIAVDTRPKDKTKNPYLVFLGSDNLLAGKKLGEKALELTPSAKRALVLNPQPGHIGLEKRAYGIKTILQDKGIFFEELDVGTDPNQVQSRVKSYFKIHPETNIIFCLTSQALDPLGQMLLHPDRYDFNYQPQVYSFDKTPNTVSLIHKKLVNYVMDQQPFLMGYLSITQLVLMNRYQLNPVNINTAM”, the protein production entry was “not failed”.

As for “REHDFDDLKFEHFLASAAGAFPAFLEVAEKRIIGEGVLRAVKESMRWHRAENVHFGAFLLLVPLISSWDAGGMVDIAEAARNRLRRTDFRDSLSVLEAFRLSNARVVEAGELNLKDRKTEEEIAQKKINLYEWMKMAPEENLIARELVDGFKISIEGAKFLLSFGNSGKAVVELYYHLLSKFPDPLVIAKMGREYAEKITEWAEKARTEEERKELDEKLLKDGANPGTIADLTASSIFLALAEGWR”, the protein production result is reported as “not failed”.

Take “REITLDDAALLQRFFVENPEYFHIVHGAAPQPDEARDEIDDALPAGWSYTHKWKIGYFDSEGRLLAFVSIVTDLLAQGVWHIGLFMLATPCHGSSLARQLHAELEAWAAGEGARWLRLSVVQDNARAQGFWNACGYAQVRTRDGIELGRLQHQVRIMIKPL”: the protein production entry is on record as “failed”.

For the sequence “RGNLGQSQKVLIEFVSANPTGPLHVGHGRGAAFGATLGNVLKAAGYDVTLEYYVNDAGRQMNILAVSVWLRYLELAGEPIVFPANGYKGQYVYEIAQEIWSEQGNQFVHPWISVVENLPADEPEGGDKETYIDAIIARAQSLLGKDGFANFHQHALKTVLDDIKDDLQAFGVRFDSWFSEQSLFEDGSIEKGIQALKDRGHTYEREGALWFRATDFGDEKDRVLVRANGQTTYFASDVAYHWNKYDRGFDRVIDIFGADHHGYVTRIKTAVKALGHDESALDVILVQFAILYRGGDRVQMSTRSGSFVTLRELREEVGNDAARYFYVARKPEQHMDFDLDLAKSESSDNPVYYIQYAHARICSVLRQLKERGLKWDKDMGL”, the protein production result is “failed”.

As to “RISWVGEAVKTDGKKSYYKKVCIDAETLEVGDCVSVIPDDSSKPLYLARVTALWEDSSNGQMFHAHWFCAGTDTVLGATSDPLELFLVDECEDMQLSYIHSKVKVIYKAPSENWAMEGGMDPESLLEGDDGKTYFYQLWYDQDYARFESPPKTQPTEDNKFKFCVSCARLAEMRQKEIPRVLEQLEDLDSRVLYYSATKNGILYRVGDGVYLPPEAFTFNIKLSSPVKRPRKEPVDEDLYPEHYRKYSDYIKGSNLDAPEPYRIGRIKEIFCPKKSNGRPNETDIKIRVNKFYRPENTHKSTPASYHADINLLYWSDEEAVVDFKAVQGRCTVEYGEDLPECVQVYSMGGPNRFYFLEAYNAKSKSFEDPPNHARSP”, the protein production result is reported as “failed”.

On to “RKFEGMKTVQLICIKMSCIMLFFVSGYAKGTQEEHTMQFGEEKTTYLLHLPKGYIQGKAYSLVVNFHGLGSAAIKHQHYCQLDAVADKEGFIAVYPQSYHQGWNAGLGFTSYIQGHDDIAYFNALLDTLEAAYSIDKNRIYVTGVSLGGSFTYRIACEMSKRIAAIASVSGLMSDSTLIYCTPERSVPVMHIHGTKDHIMRYTGMKQAFGAEEVVRLWALKDQCENKPDTVFVPNTSKKDHTSSILIKYTHCANGSEVWFYKIYNGGHTWPGAAKAFKLMGRKSKDFNG”, for which the protein production entry was “failed”.

Consider “RKIFTNKCERAGCRQREMMKLTCERCSRNFCIKHRHPLDHDCSGEGHPTS”, for which the protein production result is on record as “not failed”.

Take “RKILDSKAIDLMNALMRLNQIRPGLQYKLLSQSGPVHAPVFTMSVDVDGTTYEASGPSKKTAKLHVAVKVLQAMGYPTGFDADI”: the protein production entry was “not failed”.

As to “RLLRLKLSSLGVLKVFPNRDEAYKDIFKDLVDSNEILLLGYKGNALLSNSDYPSRLEILEEYSRGQKIAIKALLLSPQAKQYVKKRSVELGEKNLHRNHSRDIEDSIVNFRKVKENGILDVECRLFSEALKWSLLFSDKYILVSFYNNKVRVKLSPCFKLRRSSMLGWAFEKHFRDLWEKKSIDAFTSYTRPCVIVVVGGSFTGKSIISNHLSNKYQFSGVLSTDMVRNFFRISTRDRKTYQTSTYRMDDSELNIQKNNVSNMIEQMLEIYRSRREKIIIEGMHLTEDFLRNINKQDCLIIGLDNKRDINDRLDLKMKTTREEVSKKTEDEKKRINEIHYGIIECCKRNNFKVVEFQDIEDAKDKCEHLVEEFFTQRSKR”, the protein production entry was “failed”.

For “RLPEVAHLLARVHNSELLHRMLRKVGGQSVRPQDFIQQYLQDLPDDLRHHPLMARVLDELRGTAPTLPATDYRVCHGDLNHKNWLLSDRQQLYLVDWDSARFADPASDISMLLCEYVPLSDWQQWLSEYGETMTTALRTRVVWYAKINLLLNIKDNYYRNQYHQMNHEIIFLEELSQYEV”, the protein production result is on record as “failed”.

For the sequence “RLRHCNHHDPHGFYGWHETEAGSVIRTRQVGATQVNLLIDDTSHVMTPIGDDIFAIDLGHRERADYRLEVTWPDQEPQVKADPYYFLPTVG”, the protein production entry is given as “failed”.

These data come from a protein production outcome set (Wang et al. 2014).
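Further: failed if final PepcDB status was selected cloned or expressed and not failed if soluble or beyond.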
